Assay results reported in PMC5004264, “The pesticidal Cry6Aa toxin from Bacillus thuringiensis is structurally similar to HlyE-family alpha pore-forming toxins” (BMC Biology, 2016).

Legend:
[1] = target: full-length, wild-type Cry6Aa1 (Bacillus thuringiensis) (UniProt Q45757); experiment: SEC + other: non-denaturing and denaturing SDS-PAGE; Superdex 75 26/90, 25 mM CAPS pH 10, 50 mM NaCl, 2.5 ml/min; first peak at the void volume held dimers (only monomers on denaturing SDS-PAGE), second peak predominantly monomer
[2] = target: T1, Cry6Aa trypsin-resistant core, polypeptide chain 12-390 (Bacillus thuringiensis, UniProt Q45757 12-390); experiment: intact mass LC-MS; conditions: both partners purified
T1 construct: cut after Arg11 and after Arg390; Never separated from the C-terminal peptide without reduction; Cys88 is disulfide bonded to Cys451 of the peptide; also called main body of the toxin; major core
T1 sequence (looked up): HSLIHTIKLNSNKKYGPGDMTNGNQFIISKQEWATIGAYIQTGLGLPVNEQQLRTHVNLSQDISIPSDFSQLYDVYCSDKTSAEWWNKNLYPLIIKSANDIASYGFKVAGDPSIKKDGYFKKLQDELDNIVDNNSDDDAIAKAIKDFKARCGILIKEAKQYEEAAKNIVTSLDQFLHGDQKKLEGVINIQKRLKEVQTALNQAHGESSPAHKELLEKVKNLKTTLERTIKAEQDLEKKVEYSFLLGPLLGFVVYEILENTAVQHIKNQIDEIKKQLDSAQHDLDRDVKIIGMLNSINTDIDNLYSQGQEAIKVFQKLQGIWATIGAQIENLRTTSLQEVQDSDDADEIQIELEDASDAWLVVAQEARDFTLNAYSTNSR

| Molecule | stoichiometry N [1] | binding result [2] |
| --- | --- | --- |
| full-length, wild-type Cry6Aa1 (from UniProt Q45757 1-475) (natural protein) | 2 | – |
| CPENNFMIYWYNNSDWYNNSDWYNN (Minor species of the trypsin-processed toxin) [Cry6Aa C-terminal peptide CTP2 (residues 451-475)] | – | binds |
| NSNLEYKCPENNFMIYWYNNSDWYNNSDWYNN (Cys451 is disulfide bonded to Cys88 of chain 12-390) [Cry6Aa C-terminal peptide CTP1 (residues 444-475)] | – | binds |
